{"source": "patent US20230027238A1", "about": "(SPECTRUM PHARMACEUTICALS, published 2023)", "key": {"[1]": {"target": "GLP-1R on CHO cells (CHO/GLP-1R)", "assay": "cell-based or functional assay"}, "[2]": {"target": "T1, Chinese hamster ovary (CHO) cell-derived soluble recombinant human G-CSF receptor (human, UniProt Q99062 25-627)", "T1 construct": "extracellular domain; Immobilised by amine coupling on the sensor chip; also called soluble human G-CSF receptor; R&D Systems 381-050/CF", "T1 sequence (looked up)": "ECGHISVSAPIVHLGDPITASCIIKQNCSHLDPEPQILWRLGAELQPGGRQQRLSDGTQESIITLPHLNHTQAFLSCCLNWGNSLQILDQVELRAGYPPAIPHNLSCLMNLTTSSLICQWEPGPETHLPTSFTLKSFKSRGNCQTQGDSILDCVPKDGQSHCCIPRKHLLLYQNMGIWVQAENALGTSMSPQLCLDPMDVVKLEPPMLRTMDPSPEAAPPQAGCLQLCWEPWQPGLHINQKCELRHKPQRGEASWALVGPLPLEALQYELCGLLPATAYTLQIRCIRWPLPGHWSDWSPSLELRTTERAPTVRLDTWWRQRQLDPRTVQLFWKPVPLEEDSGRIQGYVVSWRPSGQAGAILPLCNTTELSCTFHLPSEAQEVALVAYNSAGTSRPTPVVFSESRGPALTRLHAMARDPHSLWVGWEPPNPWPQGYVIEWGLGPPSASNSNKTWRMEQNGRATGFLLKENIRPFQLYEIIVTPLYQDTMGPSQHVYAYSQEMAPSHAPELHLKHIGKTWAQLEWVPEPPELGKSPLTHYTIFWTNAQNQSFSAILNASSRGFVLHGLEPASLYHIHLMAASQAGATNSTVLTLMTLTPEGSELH", "assay": "SPR (BIAcore 3000), receptor amine-coupled to the chip, analyte 6.25-100 nmol/L, 25 °C, 1:1 Langmuir fit", "source_text": "Surface plasmon resonance technology and the BIAcore 3000 biosensor (GE healthcare) were employed to measure in vitro binding affinity to the G-CSF receptor. Amine-coupling chemistry was used to immobilize the G-CSF receptor on CMS biosensor chip. […] The CMS sensor chip surface was activated by injecting a 1:1 mixture of 0.1 mol/L N-hydroxysuccinimide (GE healthcare) and 0.1 mol/L 3-(N,N-dimethylamino)propyl-N-ethylcarbodiamide (GE Healthcare). […] The chip surface was then blocked with ethanolamine/HCl (GE Healthcare), pH 8.5, and washed with a regeneration solution (50 mmol/L NaCl; 5 mmol/L NaOH). […] Binding affinity was calculated using the 1:1 Langmuir fitting model for each test material."}, "[3]": {"target": "T2, Fc fragment of eflapegrastim (human, UniProt P01861 107-325 = IgG part, aglycosylated (made in recombinant E. coli cells))", "T2 construct": "tested alone, without PEG and G-CSF; also called aglycosylated IgG4-Fc fragment; immunoglobulin Fc fragment", "T2 sequence (P01861 other isoform, or with tags, fused parts or gaps limits assumed)": "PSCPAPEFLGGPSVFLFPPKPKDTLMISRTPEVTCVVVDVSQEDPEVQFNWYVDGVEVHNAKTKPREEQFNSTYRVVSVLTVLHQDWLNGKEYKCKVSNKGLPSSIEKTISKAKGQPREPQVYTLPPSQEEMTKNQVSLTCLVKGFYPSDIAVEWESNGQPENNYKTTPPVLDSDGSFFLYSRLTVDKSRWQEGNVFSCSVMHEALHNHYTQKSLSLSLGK", "assay": "ELISA with GST-FcγRIIB, detection with anti-GST antibody", "protocol": "For C1q, FcγRIIB, FcγRIIIA, and FcRn binding assays, serial dilutions of the test materials were added to 96-well microplates coated with C1q, or GST fusion proteins of FcγRIIB or FcγRIIIA, or FcRn αβ2. After incubation and washing, HRP-conjugated anti-C1q antibody was added for C1q binding assay, and rabbit-anti-GST antibody and HRP-conjugated anti-rabbit IgG antibody were sequentially added for FcγRIIB, FcγRIIIA, and FcRn binding assays. The absorbance was measured at 450 nm as described above for FcγRI binding assay."}}}
{"molecule": "CA Exendin (lysine)-PEG-(lysine) Fc (Fc fusion)", "values": [{"measurement": "% vs. Experimental group, CHO/GLP-1R bioassay", "setting": "[1]", "value": 16.1, "unit": "%"}, {"measurement": "EC50 (ng/ml), in vitro activity-CHO/GLP-1R bioassay", "setting": "[1]", "value": 59000, "unit": "ng/mL"}]}
{"molecule": "pegfilgrastim (ligand, human, UniProt P09919-2 31-204, looked up, N-terminal methionine residue pegylated with a 20 kDa polyethylene glycol, Commercial product; also called Neulasta) TPLGPASSLPQSFLLKCLEQVRKIQGDGAALQEKLCATYKLCHPEELVLLGHSLGIPWAPLSSCPSQALQLAGCLSQLHSGLFLYQGLLQALEGISPELGPTLDTLQLDVADFATTIWQQMEELGMAPALQPTQGAMPAFASAFQRRAGGVLVASHLQSFLEVSYRVLRHLAQP", "values": [{"measurement": "Kd", "setting": "[2]", "value": 2.9, "unit": "nM"}]}
{"molecule": "GST fusion protein of FcγRIIB (receptor, UniProt P31994 43-217, looked up, Order of receptor and GST unknown; not shown: GST) TPAAPPKAVLKLEPQWINVLQEDSVTLTCRGTHSPESDSIQWFHNGNLIPTHTQPSYRFKANNNDSGEYTCQTGQTSLSDPVHLTVLSEWLVLQTPHLEFQEGETIVLRCHSWKDKPLVKVTFFQNGKSKKFSRSDPNFSIPQANHSHSGDYHCTGNIGYTLYSSKPVTITVQAP", "values": [{"measurement": "binding result", "setting": "[3]", "value": "no binding"}]}
